This passage reports stoichiometry N results from article doi:10.1101/2020.04.29.068361.

This test addresses Meiothermus taiwanensis LonA (Lon AAA+ protease), wild type, full length (Meiothermus taiwanensis). Put plainly: cryo-EM structure.

“Meiothermus taiwanensis LonA (Lon AAA+ protease), wild type, full length (enzyme)”: the stoichiometry N came out at 6.

As a reminder, the stoichiometry N is the number of molecules, sites or subunits per partner or assembly.
